Patent US20110021367A1 (INDIAN INSTITUTE OF SCIENCE, published 2011)

B1: apo-RslA 1-108 (Zn2+ free, oxidized N-terminal domain of M. tuberculosis RslA), N-term His-tag (other)
chain: MTMPLRGLGPPDDTGVREVSTGDDHHYAMWDAAYVLGALSAADRREFEAHLAGCPECRGAVTELCGVPALLSQLDRDEVAAISESAPTVVASGLSPELLPSLLAAVHR
modifications: Zn2+ removed with H2O2 and TPEN; oxidized, one disulfide bond
notes: range 1-108; Same polypeptide as holo-RslA; for SPR made on the chip by passing 10 mM H2O2 and 2 mM TPEN over immobilized RslA; also called Zn^2+ free RslA; oxidized RslA; not shown: N-terminal His-tag from pET-Duet1 MCS1
B2: σ^L 1-177 (Mycobacterium tuberculosis sigma factor L, Rv0735), N-term His-tag (other)
chain: MARVSGAAAAEAALMRALYDEHAAVLWRYALRLTGDAAQAEDVVQETLLRAWQHPEVIGDTARPARAWLFTVARNMIIDERRSARFRNVVGSTDQSGTPEQSTPDEVNAALDRLLIADALAQLSAEHRAVIQRSYYRGWSTAQIATDLGIAEGTVKSRLHYAVRALRLTLQELGVTR
notes: range 1-177; also called SigL; Mtb σ^L; not shown: N-terminal His-tag from pET-Duet1 MCS1

Key:
[1] = target: B2; test: SPR (BIACORE 2000), immobilized RslA freed of Zn2+ with H2O2/TPEN, σ^L as analyte
[2] = target: the molecule itself; test: analytical gel filtration; dynamic light scattering
[3] = target: B1; test: SPR (BIACORE 2000), immobilized RslA freed of Zn2+ with H2O2/TPEN, σ^L as analyte

Binder | Kd [1] [nM] | binding result [2] | fold reduction in affinity against Zn2+ bound RslA [3] [fold]
B1 | ~150 | binds | –
B2 | – | – | 7
